Experimental data reported in article PMC4048344 (Channels, 2014).
One block for each molecule: values may come before it.

Legend:
[1] = biological target: chicken SK2-ARK splice variant, full length, expressed in Xenopus oocytes (chicken); experiment: co-IP
[2] = biological target: MBP-tagged SK2-ARK C-terminus (aa 368-553) (chicken); experiment: pull-down
[3] = biological target: chicken SK2 (isoform lacking the ARK insert), full length, expressed in Xenopus oocytes (chicken, UniProt Q9PTS9 1-553); experiment: co-IP
[4] = biological target: MBP-tagged SK2 C-terminus (aa 368-553) (chicken, UniProt Q9PTS9 368-553); experiment: pull-down

Molecule: HA-tagged α9/10-nicotinic acetylcholine receptor (chicken α9 and α10-HA subunits) (from UniProt Q9PTS8 28-484; Q9I8C7 27-452) (complex)
co-precipitated α9/10-nAChRs, percent of that with SK2 [1]: 173 % of SK2

co-precipitated CaM with 5 mM BAPTA, percent of that with SK2 [2]: 142 % of SK2
Molecule: calmodulin, purified from bovine brain (from UniProt P62157 1-149) (natural protein)

bound α-actinin-1, percent of that bound to SK2 [2]: 81.2 % of SK2
fold increase in binding with 1 mM CaCl2 against 5 mM BAPTA [2]: 6.8 fold
Molecule: GST-tagged full-length human α-actinin-1 (from UniProt P12814-3 1-914) (natural protein)

fold change of co-precipitation after BAPTA-AM [3]: 2 fold
B1: HA-tagged α9/10-nicotinic acetylcholine receptor (chicken α9 and α10-HA subunits) (complex)
chain 1: AKGKYAQMLFNELFEDYSNALRPVEDTDKVLNVTLQITLSQIKDMDERNQILTAYLWIRQSWYDAYLKWDKDKYDGLDSIRIPSNLVWRPDIVLYNKADDDFSEPVNTNVVLRYDGKITWDAPAITKSSCVVDVSYFPFDSQQCNLTFGSWTYNGNQVDIINSLDSGDLSDFVEDVEWEIHGMPAVKNVITYGCCSEPYPDVTFTLILKRKSSFYIFNLLLPCILISFLAPLGFYLPADSGEKVSLGVTVLLALTVFQLMVAEIMPPSENVPLIGKYYIATMTMITASTALTIIIMNVHHCGSEAKPVPQWARVVILDYMSKIFFVYDVGENCTSPRREKEQEHRLEGGDMCRGGDGKSHLSSRNDDSDLKENLNGNWNKSFGVHGENVRENVNCCSCYKMLIKNIEYIANCVRDHKANRAKGIEWKKVAKVMDRFFMWIFFIMVFFMSVLIIGKAA
chain 2: AQGRLAHKLLHDLFANYSSALRPAEDTERALNVTLQVTLSQIIDMDERNQVLTSYLWVRQAWLDAHLAWDKDAYGGIDSIRIPSSYVWRPDIVLYNNADERFGGSMETNVVLRSDGHIMWDSPAITKSSCKVDVSYFPFDGQQCRLTFGSWTYNGNQIDLRNLLDTGDLTDFVENVEWEVLGMPATRNVVTYGCCSEPYPDVTYTLLLRRRASFYIFNLLLPCVMISFLAPLGFYLPADSGEKVSLGVTVLLALTVFQLLVAESMPPSESVPLIGKYYIATMTMITASTALTIFIMNIHHCGPGARPVPPWARRLILHHLARALCVCEVGESCGRPQREGTGGMGPRDPPGEGVEPGLCPRSRCLCHHHAVLSSVGYIAGVFRRHRTAQRRAAEWKKVAKVMDRFFMWVFFLMVFLMSVLVIGKAA

fold increase in binding with 1 mM CaCl2 against 5 mM BAPTA [4]: 3.2 fold
B2: GST-tagged full-length human α-actinin-1 (natural protein, UniProt P12814-3 1-914, looked up)
chain: MDHYDSQQTNDYMQPEEDWDRDLLLDPAWEKQQRKTFTAWCNSHLRKAGTQIENIEEDFRDGLKLMLLLEVISGERLAKPERGKMRVHKISNVNKALDFIASKGVKLVSIGAEEIVDGNVKMTLGMIWTIILRFAIQDISVEETSAKEGLLLWCQRKTAPYKNVNIQNFHISWKDGLGFCALIHRHRPELIDYGKLRKDDPLTNLNTAFDVAEKYLDIPKMLDAEDIVGTARPDEKAIMTYVSSFYHAFSGAQKAETAANRICKVLAVNQENEQLMEDYEKLASDLLEWIRRTIPWLENRVPENTMHAMQQKLEDFRDYRRLHKPPKVQEKCQLEINFNTLQTKLRLSNRPAFMPSEGRMVSDINNAWGCLEQVEKGYEEWLLNEIRRLERLDHLAEKFRQKASIHEAWTDGKEAMLRQKDYETATLSEIKALLKKHEAFESDLAAHQDRVEQIAAIAQELNELDYYDSPSVNARCQKICDQWDNLGALTQKRREALERTEKLLETIDQLYLEYAKRAAPFNNWMEGAMEDLQDTFIVHTIEEIQGLTTAHEQFKATLPDADKERLAILGIHNEVSKIVQTYHVNMAGTNPYTTITPQEINGKWDHVRQLVPRRDQALTEEHARQQHNERLRKQFGAQANVIGPWIQTKMEEIGRISIEMHGTLEDQLSHLRQYEKSIVNYKPKIDQLEGDHQLIQEALIFDNKHTNYTMEHIRVGWEQLLTTIARTINEVENQILTRDAKGISQEQMNEFRASFNHFDRDHSGTLGPEEFKACLISLGYDIGNDPQKKTGMMDTDDFRACLISMGYNMGEAEFARIMSIVDPNRLGVVTFQAFIDFMSRETADTDTADQVMASFKILAGDKNYITMDELRRELPPDQAEYCIARMAPYTGPDSVPGALDYMSFSTALYGESDL
